Experimental data reported in patent publication US20180298374A1 (Merck KGaA, published 2018).
Read-outs that look alike come from different tables or passages of the source.

Legend:
[1] = target: T1, huEGFR (human, UniProt P00533 25-645, limits assumed, phycoerythrin conjugate (LYNX rapid RPE kit))
T1 construct: also called EGFR-PE; EGFR-phycoerythrin

[2] = target: T1, huEGFR; remark: listed apart in the source

Kd [1]: 113 nM | Kd [2]: 0.34 nM
B1: matuzumab (antibody, V domains shown)
VH: QVQLVQSGAEVKKPGASVKVSCKASGYTFTSHWMHWVRQAPGQGLEWIGEFNPSNGRTNYNEKFKSKATMTVDTSTNTAYMELSSLRSEDTAVYYCASRDYDYDGRYFDYWGQGTLVTVSS
VL: DIQMTQSPSSLSASVGDRVTITCSASSSVTYMYWYQQKPGKAPKLLIYDTSNLASGVPSRFSGSGSGTDYTFTISSLQPEDIATYYCQQWSSHIFTFGQGTKVEIKG
